Experimental data taken from US20120316071A1 (published 2012).

B1: Fab VH1-46_IGHD6-6*01_IGHJ1*01 S102A/S103P/S104F/H111F & L6_IGKJ1*01 (Fab, V domains shown)
VH: QVQLVQSGAEVKKPGASVKVSCKASGYTFTSYYMHWVRQAPGQGLEWMGIINPSGGSTSYAQKFQGRVTMTRDTSTSTVYMELSSLRSEDTAVYYCAREEYAPFSAEYFQFWGQGTLVTVSS
VL: not shown
notes: Tested as a Fab made in E. coli; also called H:APFF & L:wt; APFF
B2: Fab VH1-46_IGHD6-6*01_IGHJ1*01 S102A/S103P/S104F/H111F & L6_IGKJ1*01 S28N/S30D/S31H (Fab, V domains shown)
VH: QVQLVQSGAEVKKPGASVKVSCKASGYTFTSYYMHWVRQAPGQGLEWMGIINPSGGSTSYAQKFQGRVTMTRDTSTSTVYMELSSLRSEDTAVYYCAREEYAPFSAEYFQFWGQGTLVTVSS
VL: EIVLTQSPATLSLSPGERATLSCRASQNVDHYLAWYQQKPGQAPRLLIYDASNRATGIPARFSGSGSGTDFTLTISSLEPEDFAVYYCQQRSNWPPWTFGQGTKVEIKR
notes: Tested as a Fab; also called H:APFF & L:NDH; APFF-NDH
B3: Fab VH1-46_IGHD6-6*01_IGHJ1*01 S102A/S103P/S104F/H111F/G56A & L6_IGKJ1*01 (Fab, V domains shown)
VH: QVQLVQSGAEVKKPGASVKVSCKASGYTFTSYYMHWVRQAPGQGLEWMGIINPSGASTSYAQKFQGRVTMTRDTSTSTVYMELSSLRSEDTAVYYCAREEYAPFSAEYFQFWGQGTLVTVSS
VL: not shown
notes: Tested as a Fab; also called APFF G56A & Parent
B4: Fab VH1-46_IGHD6-6*01_IGHJ1*01 S102A/S103P/S104F/H111F/G56A & L6_IGKJ1*01 S28N/S30D/S31H (Fab, V domains shown)
VH: QVQLVQSGAEVKKPGASVKVSCKASGYTFTSYYMHWVRQAPGQGLEWMGIINPSGASTSYAQKFQGRVTMTRDTSTSTVYMELSSLRSEDTAVYYCAREEYAPFSAEYFQFWGQGTLVTVSS
VL: EIVLTQSPATLSLSPGERATLSCRASQNVDHYLAWYQQKPGQAPRLLIYDASNRATGIPARFSGSGSGTDFTLTISSLEPEDFAVYYCQQRSNWPPWTFGQGTKVEIKR
notes: Tested as a Fab; also called H:APFF G56A & L:NDH
B5: Fab VH1-46_IGHD6-6*01_IGHJ1*01 S102A/S103P/S104F/H111F/S54A & L6_IGKJ1*01 S28N/S30D/S31H (Fab, V domains shown)
VH: QVQLVQSGAEVKKPGASVKVSCKASGYTFTSYYMHWVRQAPGQGLEWMGIINPAGGSTSYAQKFQGRVTMTRDTSTSTVYMELSSLRSEDTAVYYCAREEYAPFSAEYFQFWGQGTLVTVSS
VL: EIVLTQSPATLSLSPGERATLSCRASQNVDHYLAWYQQKPGQAPRLLIYDASNRATGIPARFSGSGSGTDFTLTISSLEPEDFAVYYCQQRSNWPPWTFGQGTKVEIKR
notes: Tested as a Fab; also called H:APFF S54A & L:NDH
B6: Fab VH1-46_IGHD6-6*01_IGHJ1*01 S102A/S103P/S104F/H111F (APFF) & L6_IGKJ1*01 (Fab, V domains shown)
VH: QVQLVQSGAEVKKPGASVKVSCKASGYTFTSYYMHWVRQAPGQGLEWMGIINPSGGSTSYAQKFQGRVTMTRDTSTSTVYMELSSLRSEDTAVYYCAREEYAPFSAEYFQFWGQGTLVTVSS
VL: not shown
notes: Fab made in E. coli: VH in plasmid A (CH1, His6 and Flag tags), VL in plasmid C (kappa CL); also called H:APFF & L:wt; APFF mutant
B7: Fab VH1-46_IGHD6-6*01_IGHJ1*01 S102A/S103P/S104F/H111F (APFF) & L6_IGKJ1*01 S76G (Fab, V domains shown)
VH: QVQLVQSGAEVKKPGASVKVSCKASGYTFTSYYMHWVRQAPGQGLEWMGIINPSGGSTSYAQKFQGRVTMTRDTSTSTVYMELSSLRSEDTAVYYCAREEYAPFSAEYFQFWGQGTLVTVSS
VL: EIVLTQSPATLSLSPGERATLSCRASQSVSSYLAWYQQKPGQAPRLLIYDASNRATGIPARFSGSGSGTDFTLTIGSLEPEDFAVYYCQQRSNWPPWTFGQGTKVEIKR
notes: Fab made in E. coli: VH in plasmid A (CH1, His6 and Flag tags), VL in plasmid C (kappa CL); also called H:APFF & L6_IGKJ1*01 S76G

Experiments:
[1] = target: T1, Recombinant Human DLL4 (delta-like protein 4) (human, UniProt Q9NR61 27-524); assay: ELISA, DLL4 coated on plate, Fab at 50 nM
T1 construct: Bought recombinant human DLL4 (R&D Systems Cat#1506-D4/CF); also called rHuman DLL4; Delta-like 4

[2] = target: T1, Recombinant Human DLL4 (delta-like …); assay: ELISA, DLL4 coated on plate, Fab at 100 nM
[3] = target: T1, Recombinant Human DLL4 (delta-like …); assay: ELISA, DLL4 coated on plate, Fab at 200 nM
[4] = target: T1, Recombinant Human DLL4 (delta-like …); assay: ELISA, DLL4 coated on plate, Fab at 25 nM (second 25 nM row)
[5] = target: T1, Recombinant Human DLL4 (delta-like …); assay: ELISA, DLL4 coated on plate, Fab at 0 nM (no-Fab background)
[6] = target: T1, Recombinant Human DLL4 (delta-like …); assay: ELISA, DLL4 coated on plate, Fab at 75 nM
[7] = target: T1, Recombinant Human DLL4 (delta-like …); assay: ELISA, DLL4 coated on plate, Fab at 25 nM (first 25 nM row)
[8] = target: T1, Recombinant Human DLL4 (delta-like …); assay: ELISA, DLL4 coated on plate, Fab at 0 nM (no-Fab background, first 0 row)
[9] = target: T1, Recombinant Human DLL4 (delta-like …); assay: ELISA, DLL4 coated on plate, Fab at 0 nM (no-Fab background, second 0 row)
[10] = target: T1, Recombinant Human DLL4 (delta-like …); assay: ELISA, DLL4 coated on plate, Fab at 50 nM; remark: listed apart in the source
[11] = target: T1, Recombinant Human DLL4 (delta-like …); assay: ELISA, DLL4 coated on plate, Fab at 100 nM; remark: listed apart in the source
[12] = target: T1, Recombinant Human DLL4 (delta-like …); assay: ELISA, DLL4 coated on plate, Fab at 400 nM
[13] = target: T2, Recombinant Human DLL4 (delta-like protein 4) (human, UniProt Q9NR61 27-524); assay: ECL (Meso Scale Discovery) binding assay on immobilised DLL4, Fab 10 nM
T2 construct: also called rHuman DLL4

| Binder | ELISA signal [1] | ELISA signal [2] | ELISA signal [5] | ELISA signal [6] | other results |
| --- | --- | --- | --- | --- | --- |
| B1 | 0.06 | 0.072 | 0.006 | 0.072 | ELISA signal [3]: 0.1; ELISA signal [4]: 0.03; ELISA signal [7]: 0.02; ELISA signal [8]: 0; ELISA signal [9]: 0; ELISA signal [10]: 0.06; ELISA signal [11]: 0.07; ELISA signal [12]: 0.13 |
| B2 | 0.202 | 0.259 | 0.002 | 0.268 | – |
| B3 | 0.301 | 0.338 | 0.002 | 0.399 | – |
| B4 | 0.366 | 0.453 | 0.002 | 0.543 | – |
| B5 | 0.154 | 0.213 | 0 | 0.212 | – |
| B6 | – | – | – | – | Signal [10 nM Fab] [13]: 13500 |
| B7 | – | – | – | – | Signal [10 nM Fab] [13]: 13400 |
